Assay results taken from patent publication US20250376536A1 (Bristol-Myers Squibb, published 2025).
Where a chain is given by its changes, count along the chain named. Numbers in names are those of the source.

Experiments:
[1] = molecular target: T1, human CD40 protein (human, UniProt P25942 21-193); test: SPR
T1 construct: Protein used in SPR
Method: (§1) CD40.9H3×FAP.LP62 and an analog of RO7300490 (see SEQ ID NOs: 39-42) binding to human and cynomolgus (cyno) CD40 and FAP was evaluated by surface plasmon resonance (SPR) using human and cyno CD40 and FAP proteins. […] The rates of association and dissociation of CD40.9H3×FAP.LP62 and the analog of RO7300490 to human CD40 and FAP are summarized in Table 2.

[2] = molecular target: cynomolgus (cyno) CD40 protein (cynomolgus monkey, UniProt G7PG38 21-193); test: SPR
Method: as §1

[3] = molecular target: T2, cynomolgus (cyno) FAP protein (cynomolgus monkey); test: SPR
T2 chain: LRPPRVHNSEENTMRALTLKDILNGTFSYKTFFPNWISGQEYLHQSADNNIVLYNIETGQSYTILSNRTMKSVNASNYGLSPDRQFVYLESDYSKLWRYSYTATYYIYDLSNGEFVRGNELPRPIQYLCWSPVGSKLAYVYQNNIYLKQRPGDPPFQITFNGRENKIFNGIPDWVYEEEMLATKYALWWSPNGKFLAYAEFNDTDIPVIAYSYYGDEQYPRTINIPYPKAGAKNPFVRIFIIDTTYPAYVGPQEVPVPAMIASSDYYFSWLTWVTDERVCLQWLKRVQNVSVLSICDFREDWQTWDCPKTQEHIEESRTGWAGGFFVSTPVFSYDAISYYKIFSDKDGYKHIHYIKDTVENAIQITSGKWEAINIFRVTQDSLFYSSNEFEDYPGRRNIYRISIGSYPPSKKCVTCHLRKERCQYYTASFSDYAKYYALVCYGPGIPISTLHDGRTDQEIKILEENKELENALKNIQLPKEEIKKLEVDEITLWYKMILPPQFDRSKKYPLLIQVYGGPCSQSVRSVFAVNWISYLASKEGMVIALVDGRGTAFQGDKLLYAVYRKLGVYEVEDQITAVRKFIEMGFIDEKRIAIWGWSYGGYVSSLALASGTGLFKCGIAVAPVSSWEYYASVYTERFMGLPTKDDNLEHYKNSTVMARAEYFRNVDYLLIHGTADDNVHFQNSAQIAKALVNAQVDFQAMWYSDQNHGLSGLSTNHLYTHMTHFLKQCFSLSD
Method: as §1

[4] = molecular target: T3, human FAP protein (human, UniProt Q12884 26-760); test: SPR
T3 sequence: T2 chain with P4S, F236V, D392E
Method: as §1

[5] = molecular target: T4, human CD40 on cells (human, UniProt P25942 21-277); test: binding to human CD40-positive B cells
T4 construct: Endogenous CD40 on human primary cells and Raji cells; also called CD40-positive macrophage; CD40-positive B cell
T4 sequence (P25942 21-277): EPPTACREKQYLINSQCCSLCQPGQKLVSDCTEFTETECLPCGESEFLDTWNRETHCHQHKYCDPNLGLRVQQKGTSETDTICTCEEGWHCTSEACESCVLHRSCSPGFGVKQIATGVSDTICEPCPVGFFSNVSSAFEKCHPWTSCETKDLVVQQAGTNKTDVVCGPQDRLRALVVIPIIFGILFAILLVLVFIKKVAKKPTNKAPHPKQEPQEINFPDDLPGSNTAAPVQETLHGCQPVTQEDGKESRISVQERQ

[6] = molecular target: T4, human CD40 on cells; test: binding to human CD40-positive macrophages
[7] = molecular target: T5, human FAP on cells (human, UniProt Q12884 1-760); test: binding to human FAP-positive HEK cells
T5 construct: also called FAP-positive HEK cells (human); human FAP-expressing HEK cells
T5 sequence: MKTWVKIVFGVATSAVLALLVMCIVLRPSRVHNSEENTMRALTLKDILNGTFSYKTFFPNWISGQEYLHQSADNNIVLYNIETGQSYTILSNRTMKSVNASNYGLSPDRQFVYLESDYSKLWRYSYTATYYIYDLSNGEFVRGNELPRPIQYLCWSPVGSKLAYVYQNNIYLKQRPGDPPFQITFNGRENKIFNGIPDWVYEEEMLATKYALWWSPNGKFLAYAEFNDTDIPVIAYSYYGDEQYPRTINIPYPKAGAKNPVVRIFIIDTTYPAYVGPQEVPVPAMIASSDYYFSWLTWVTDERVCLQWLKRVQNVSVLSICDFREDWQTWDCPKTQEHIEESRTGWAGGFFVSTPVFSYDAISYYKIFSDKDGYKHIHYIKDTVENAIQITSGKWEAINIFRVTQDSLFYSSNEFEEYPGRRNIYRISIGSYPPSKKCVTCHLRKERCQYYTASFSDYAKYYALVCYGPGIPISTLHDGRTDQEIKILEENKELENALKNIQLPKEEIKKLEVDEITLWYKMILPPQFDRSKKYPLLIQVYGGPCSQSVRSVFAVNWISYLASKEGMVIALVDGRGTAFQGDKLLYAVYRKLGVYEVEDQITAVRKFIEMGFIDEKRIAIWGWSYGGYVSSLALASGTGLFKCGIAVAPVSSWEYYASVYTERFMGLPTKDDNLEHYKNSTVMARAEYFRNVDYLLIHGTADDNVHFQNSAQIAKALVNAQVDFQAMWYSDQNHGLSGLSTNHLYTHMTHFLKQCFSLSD

[8] = molecular target: T6, cyno FAP on HEK cells (cynomolgus monkey); test: binding to cyno FAP-positive HEK cells
T6 construct: whole, on cells; also called Cyno FAP-positive HEK cells

T1 sequence (P25942 21-193 limits assumed): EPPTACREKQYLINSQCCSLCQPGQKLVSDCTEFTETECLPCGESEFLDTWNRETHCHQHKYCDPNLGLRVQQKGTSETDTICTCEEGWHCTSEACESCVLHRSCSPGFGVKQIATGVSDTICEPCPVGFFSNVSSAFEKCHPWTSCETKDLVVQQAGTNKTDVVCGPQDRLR

Kd [1]: 92 nM
koff [1]: 0.0052 s⁻¹
kon [1]: 57000 M⁻¹ s⁻¹
Kd [2]: 97 nM
koff [2]: 0.0052 s⁻¹
kon [2]: 53000 M⁻¹ s⁻¹
Kd [3]: 5.6 nM
koff [3]: 0.00276 s⁻¹
kon [3]: 500000 M⁻¹ s⁻¹
Kd [4]: 1.96 nM
koff [4]: 0.00147 s⁻¹
kon [4]: 750000 M⁻¹ s⁻¹
EC50 [5]: 7.53 nM
EC50 [6]: 11.9 nM
EC50 [7]: 3.72 nM
EC50 [8]: 3.6 nM
B1: CD40.9H3×FAP.LP62 bispecific antibody (bispecific antibody, human IgG1, kappa, L234A L235A)
heavy 1: EVQLVESGGGLVQPGGSLRLSCAASGFTFIGYSMNWVRQAPGKGLEWVSYISSYESTIYYADSVKGRFTISRDNAKNSLYLQMNSLRAEDTAVYYCARSRITLVRGVPRYFDLWGRGTLVTVSSASTKGPSVFPLAPSSKSTSGGTAALGCLVKDYFPEPVTVSWNSGALTSGVHTFPAVLQSSGLYSLSSVVTVPSSSLGTQTYICNVNHKPSNTKVDKKVEPKSCDKTHTCPPCPAPEAAGGPSVFLFPPKPKDTLMISRTPEVTCVVVSVSHEDPEVKFNWYVDGVEVHNAKTKPREEQYNSTYRVVSVLTVLHQDWLNGKEYKCKVSNKALPAPIEKTISKAKGQPREPQVYVLPPSREEMTKNQVSLLCLVKGFYPSDIAVEWESNGQPENNYLTWPPVLDSDGSFFLYSKLTVDKSRWQQGNVFSCSVMHEALHNHYTQKSLSLSPG
heavy 2: EVQLVESGGGLVQPGGSLRLSCAASGFTFIGYSMNWVRQAPGKGLEWVSYISSYESTIYYADSVKGRFTISRDNAKNSLYLQMNSLRAEDTAVYYCARSRITLVRGVPRYFDLWGRGTLVTVSSASTKGPSVFPLAPSSKSTSGGTAALGCLVKDYFPEPVTVSWNSGALTSGVHTFPAVLQSSGLYSLSSVVTVPSSSLGTQTYICNVNHKPSNTKVDKKVEPKSCDKTHTCPPCPAPEAAGGPSVFLFPPKPKDTLMISRTPEVTCVVVSVSHEDPEVKFNWYVDGVEVHNAKTKPREEQYNSTYRVVSVLTVLHQDWLNGKEYKCKVSNKALPAPIEKTISKAKGQPREPQVYVYPPSREEMTKNQVSLTCLVKGFYPSDIAVEWESNGQPENNYKTTPPVLDSDGSFALVSKLTVDKSRWQQGNVFSCSVMHEALHNHYTQKSLSLSPGGGSGGGGSGGGGSGGGGSEVQLLESGGGLVQPGGSLRLSCAASGFTFSSRGMSWVRQAPGKCLEWVSFISSSGTYVYYADSVKGRFTISRDNSKNTLYLQMNSLRAEDTAVYYCARDLPRTGVYFGMDVWGQGTTVTVSSGGGGSGGGGSGGGGSGGGGSDIQMTQSPSSLSASVGDRVTITCRASQSIFNYLNWYQQKPGKAPKLLIYGASTLQSGVPSRFSGSGSGTDFTLTISSLQPEDFATYYCQESYSTPYTFGCGTKVEIK
light: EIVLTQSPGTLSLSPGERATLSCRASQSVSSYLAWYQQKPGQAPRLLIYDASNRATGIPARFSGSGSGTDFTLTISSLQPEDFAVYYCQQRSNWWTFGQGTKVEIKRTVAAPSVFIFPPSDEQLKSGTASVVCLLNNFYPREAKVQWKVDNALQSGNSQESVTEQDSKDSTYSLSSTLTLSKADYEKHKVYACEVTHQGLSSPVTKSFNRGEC
notes: 2+1 format: two anti-CD40 9H3 Fabs on an IgG1 Fc with L234A, L235A, D265S and heterodimerization mutations; Ratio 1:1:2
